Laboratory results published in US20240277861A1, “ANTI-HEPATITIS B VIRUS AGENT TARGETING HOST FACTOR LIPG” (PUROTECH BIO, INC., priority 2021, published 2024).

Key:
[1] = tested on: HBV; test: HBV attachment, uptake and replication in Huh7-LIPG cells; format: cell-based; conditions: Huh7-LIPG cells infected with HBV, 3 days after treatment
Description: (§1) HBV-DNA and cccDNA were quantified by qPCR as described below. Total DNA was extracted from cells using DNeasy Blood & Tissue Kit (Qiagen, Hilden, Germany). HBV-DNA was quantified by qPCR analysis as previously reported (Honda. M. et al., J. Infect. Dis., 213, 1096-1106, 2016). The extracted DNA (50 ng) was treated with 10 U of Plasmid safe DNase I (Epicentre, Madison. WI) at 37° C. for 60 minutes and then treated at 70° C. for 30 minutes for DNase inactivation, cccDNA was quantified by qPCR analysis as previously reported (Honda, M. et al., J. Infect. Dis. 213, 1096-1106, 2016). Quantitative RT-PCR was performed as described below. The GenElute™ Mammalian Total RNA Miniprep Kit (Sigma-Aldrich) was used for extraction of total RNA, and the High Capacity cDNA Reverse Transcription Kit (Applied Biosystems, Carlsbad, CA) was used for cDNA synthesis. The 7500 Real Time PCR System (Applied Biosystems) was used for RT-PCR. Primers 5′-[…]-3′ (SEQ ID NO: 31) and 5′-[…]-3′ (SEQ ID NO: 32) and a probe 5′-FAM-[…]-MGB-3′ (SEQ ID NO: 33) were used for pregenomic RNA. Primer pairs and probes for LIPG, NTCP. 18SrRNA, and ACTB were obtained from the TaqMan assay reagents library.
When the abundance of LIPG expression was compared among different liver cell lines. […] HepG2-NTCP-C4 cells with overexpression of FLAG-LIPG (HepG2-NTCP-C4-LIPG cells) were established (FIG. 2B), and the attachment and uptake of HBV into cells were assayed in the resulting cells. Heparin, which has been reported to inhibit HBV attachment (Schulze. A. et al., Hepatology 46: 1759-1768, 2007), and heparanase, an endo-β-D-glucuronidase that cleaves the heparan sulfate side chain in heparan sulfate proteoglycans (HSPGs) (Bame, KJ. Glycobiology,11: 91R-98R,2001), were used as control compounds. […] HBV attachment was detected by qPCR of HBV-DNA at 3 hours after HBV inoculation at 4° C. in the presence or absence of the compound (heparin or heparanase). […]

[2] = tested on: HBV; test: HBV attachment and uptake assay in HepG2-NTCP-C4-LIPG cells; format: cell-based; conditions: pretreated 1 hour
Description: as §1
When the abundance of LIPG expression was compared among different liver cell lines. […] HepG2-NTCP-C4 cells with overexpression of FLAG-LIPG (HepG2-NTCP-C4-LIPG cells) were established (FIG. 2B), and the attachment and uptake of HBV into cells were assayed in the resulting cells. Heparin, which has been reported to inhibit HBV attachment (Schulze. A. et al., Hepatology 46: 1759-1768, 2007), and heparanase, an endo-β-D-glucuronidase that cleaves the heparan sulfate side chain in heparan sulfate proteoglycans (HSPGs) (Bame, KJ. Glycobiology,11: 91R-98R,2001), were used as control compounds. Cells (HepG2-NTCP-C4-LIPG cells and HepG2-NTCP-C4 control cells) were pretreated with these compounds for 1 hour and then with HBV at 4° C. for 3 hours to allow HBV to attach the cells, washed to wash out HBV, and further incubated at 37° C. for 12 hours to detect uptake of HBV (FIG. 2C). In addition, the cells were further cultured in a conventional culture medium for 3 days after HBV inoculation to detect HBV DNA and cccDNA in the cells (FIG. 2C). HBV attachment was detected by qPCR of HBV-DNA at 3 hours after HBV inoculation at 4° C. in the presence or absence of the compound (heparin or heparanase). HBV attachment (FIG. 2D), uptake (FIG. 2E), and replication of HBV DNA and cccDNA (FIGS. 2F and 2G) were all increased in the HepG2-NTCP-C4-LIPG cells compared to the HepG2-NTCP-C4 control cells.
Next, the effect of a LIPG inhibitor (GSK-264220A) on HBV attachment and uptake was examined. […] At the same time, this inhibitor had no effect on HepG2-NTCP-C4 control cells.

[3] = tested on: HBV; test: Anti-HBV activities of LIPG-binding peptides in PXB cells; format: cell-based; conditions: for anti-HBV activity (effect to reduce HBV DNA and cccDNA copy numbers): HBV-infected PXB cells
Description: (§2) An infection source medium was prepared by adding the HBV-infected chimeric mouse serum (PhoenixBio), DMSO, and a PEG 8000 solution to the PXB cell culture medium (PhoenixBio) at final concentrations of 5 genome equivalents/cell, 2%, and 4%, respectively. Various synthesized peptides were diluted to different concentrations in this medium, and the resulting media were added individually to PXB cells (PhoenixBio). After the cells were left to stand in a 5% CO2 incubator at 37° C. for 20 to 28 hours, the medium was removed and the wells were washed once with PBS(−). DMSO and one of the various synthesized peptides were added to the PXB cell culture medium at a final concentration of 2% and different concentrations, respectively, and the resulting media were added individually to the PXB cells to perform medium exchange. This medium exchange was performed at 1, 5, and 9 days post infection and samples were collected at 14 days post infection.
(§3) SMI TEST™ M EX-R&D (Medical & Biological Laboratories) was used to extract DNA from the samples. The extracted DNA was used as a template for quantitative PCR of HBV-DNA. For cccDNA detection, the extracted DNA was treated with T5 exonuclease (New England Biolabs), and the resulting DNA was used as a template for quantitative PCR. The T5 exonuclease treatment was performed at 37° C. for 30 minutes, and the DNase was later inactivated by heating at 80° C. for 15 minutes. The following primer set was used for detection.
PXB cells, fresh human liver cells isolated from PXB mice (human hepatocyte chimeric mice), are human liver cells that maintain human liver functions at high levels and allow persistent infection with hepatitis B virus (HBV). Therefore, PXB cells were used to evaluate the anti-HBV activities of LIPG-binding peptides. LIPG-binding peptides were chemically synthesized because they were added extracellularly (Eurofins Genomics K.K.). Clones that had shown excellent results in the studies of Examples 10 and 1 (KIgk-LIPH4-23, KIgk-LIPH4-74, KIgk-LIPH4-15, KIgk-L1l 14-2. KIgk-LIPH14-14. KIgk-LIPH4-87) were selected for chemical synthesis of the peptides. […] Therefore, LIPH4-NTNA and LIPH4-NTNB, which share a common sequence with netrins and consist of 16 amino acids, were also chemically synthesized. The chemically synthesized peptides were dissolved in DMSO for use in HBV assays in PXB cells.
Next, the anti-HBV activity of full-length Netrin-1 was examined in PXB cells. A full-length human recombinant Netrin-1 protein consisting of 604 amino acid residues (molecular weight: 67.5 kDa, SEQ ID NO: 28) was purchased from R&D Systems. United States. A shRNA with the sequence […]ctcgagc[…] TTTTTTG (single underline: terminal sequences for cloning, lowercase letters: hairpin loop sequence) (SEQ ID NO: 64) was used to knock down the Netrin-1 gene.

[4] = target: T1, binding between preS1 and heparan sulfate enhanced by LIPG (Homo sapiens, UniProt Q9Y5X9); test: Plate assay of binding between preS1 peptide and immobilized heparan sulfate with FLAG-LIPG; conditions: 10 or 100 nmol of peptide per well, concentration-dependent
T1 construct: FLAG
T1 sequence (Q9Y5X9 21-500): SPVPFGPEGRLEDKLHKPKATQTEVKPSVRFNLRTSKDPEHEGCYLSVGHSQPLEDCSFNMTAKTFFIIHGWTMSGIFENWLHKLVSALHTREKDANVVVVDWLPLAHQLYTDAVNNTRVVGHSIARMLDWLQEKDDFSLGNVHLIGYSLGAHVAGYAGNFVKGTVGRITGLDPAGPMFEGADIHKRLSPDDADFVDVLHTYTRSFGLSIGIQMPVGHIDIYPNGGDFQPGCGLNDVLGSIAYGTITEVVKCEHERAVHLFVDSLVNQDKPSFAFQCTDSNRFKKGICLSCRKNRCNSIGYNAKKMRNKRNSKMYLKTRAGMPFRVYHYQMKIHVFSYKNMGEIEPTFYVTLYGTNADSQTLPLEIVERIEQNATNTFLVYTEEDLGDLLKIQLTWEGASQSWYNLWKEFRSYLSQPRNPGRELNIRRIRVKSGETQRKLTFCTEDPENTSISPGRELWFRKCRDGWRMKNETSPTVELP
Description: FIG. 22-2 The effect of LIPG to promote HBV entry into cells and the effect of a LIPG-binding peptide and Netrin-1 to inhibit HBV entry into cells. E: A biotin-labeled form of heparan sulfate was added to a streptavidin-coated 96 well plate and left overnight at 4° C. to allow the heparan sulfate to bind to the plate. This plate was washed with TBS, and 10, 25, or 50 fmol of FLAG-LIPG was then added to each well to allow the reaction to proceed at room temperature for 2 hours. After the plate was washed, 10 or 100 nmol of LIPG-binding peptide LIPH4-NTNBS, LIPH4-23S, LIPH4-NTNBSA, or LIPH4-23SA was added to each well to allow the treatment to proceed at room temperature for 1 hour. Subsequently, the plate was washed, and 0.1 nmol of preS1-TMR was added to each well to allow the treatment to proceed at room temperature for another 1 hour. The plate was washed and then placed in a plate reader to measure the fluorescence of TMR.
Furthermore, PXB cells treated with Netrin-1 were further treated with FLAG-LIPG, and the uptake of the preS1 peptide was examined, to find that the enhancement of the uptake of the preS1 peptide by FLAG-LIPG was suppressed by Netrin-1 (FIG. 22D). In addition, a biotin-labeled heparan sulfate was immobilized on a streptavidin-coated plate and the preS1 peptide was added thereto to study the binding between the preS1 region of HBV and heparan sulfate present on the cell surface.

[5] = tested on: HBV; test: Anti-HBV activities of LIPG-binding peptides delivered into PXB cells-1 (scFv fusions); format: cell-based; conditions: for HBV-DNA copy number: peptide concentrations (nM) indicated in FIG. 41B; for cccDNA copy number: peptide concentrations (nM) indicated in FIG. 41C
Description: as §2, §3
The anti-HBV activities of LIPG-binding peptides delivered into cells were evaluated using PXB cells and anti-ASGR single-chain antibody-LIPG-binding peptide fusions. Of the fusions prepared in Example 16, 10M-L23N, 10M-L23SN. 10M-L23SN-S39, and 10M-LNTSN were used. According to the timeline shown in FIG. 41A, the anti-HBV activities of the fusions were evaluated using the methods described in “(10-5) Infection experiment using PXB cells” and “(10-6) Quantification of HBV-DNA and cccDNA”.

## CN(C)CCCN1c2ccccc2Sc2ccc(Cl)cc21 [chlorpromazine]
[1]
  LIPG-mediated increase in HBV replication (cccDNA): no effect

## heparin
[2]
  increase in HBV attachment, uptake, and replication of HBV DNA and cccDNA in LIPG-overexpressing cells: reduced this increase to the same level as the control

## heparanase
[2]
  increase in HBV attachment, uptake, and replication of HBV DNA and cccDNA in LIPG-overexpressing cells: reduced this increase to the same level as the control

## LNARDNTR (LIPH4-23SA)
[3]
  anti-HBV activity (effect to reduce HBV DNA and cccDNA copy numbers): as strongly as the original polypeptides
[4]
  LIPG-mediated enhancement of binding between preS1 and heparan sulfate: inhibited

## NARHNTAG (LIPH4-NTNBsA)
[3]
  anti-HBV activity (effect to reduce HBV DNA and cccDNA copy numbers): as strongly as the original polypeptides
[3]; PXB cells, each concentration
  activity in terms of copy number of HBV-DNA relative to LIPH4-NTNBs: equal to or greater than that of LIPH4-NTNBs
  activity in terms of copy number of cccDNA relative to LIPH4-NTNBs: equal to or greater than that of LIPH4-NTNBs
[4]
  LIPG-mediated enhancement of binding between preS1 and heparan sulfate: inhibited

## CCN(c1nc(N)c(C(=O)N=C(N)N)nc1Cl)C(C)C [5-(N-ethyl-N-isopropyl)amiloride]
[1]
  LIPG-mediated increase in HBV replication (cccDNA): no effect

B1: 10M-L23N: fusion of anti-ASGR scFv ASGR3-10M, cleavage sequence, LIPH4-23, S28, nuclear localization signal (SEQ ID NO: 127) (protein)
chain: RVRRLNCRDNTRPVMSAMTCDYKDDDDKHHHHHHHPFVIGAGVLGALGTGIGGITTSTQFYYKPAAKRVKLD
modifications: cleavage sequence + LIPH4-23 + Flag-tag + His-tag + S28 + nuclear localization signal
[5]
  HBV-DNA copy number: remarkably reduced
  cccDNA copy number: remarkably reduced

B2: 10M-L23SN: fusion of ASGR3-10M scFv, cleavage sequence, LIPH4-23s, S28, nuclear localization signal (SEQ ID NO: 128) (protein)
chain: RVRRLNCRDNTRDYKDDDDKHHHHHHHPFVIGAGVLGALGTGIGGITTSTQFYYKPAAKRVKLD
modifications: cleavage sequence + LIPH4-23S + Flag-tag + His-tag + S28 + nuclear localization signal
[5]
  HBV-DNA copy number: remarkably reduced
  cccDNA copy number: remarkably reduced

B3: 10M-L23SN-S39: fusion of ASGR3-10M scFv, cleavage sequence, LIPH4-23s, S39, nuclear localization signal (SEQ ID NO: 129) (protein)
chain: RVRRLNCRDNTRDYKDDDDKHHHHHHHPFVIGAGVLGALGTGIGGITTSTQFYYKLSQELNGDMERPAAKRVKLD
modifications: cleavage sequence + LIPH4-23S + Flag-tag + His-tag + S39 + nuclear localization signal
[5]; added concentrations 2.5 to 25 nM
  HBV-DNA and cccDNA copy numbers: remarkably reduced
[5]
  HBV-DNA copy number: remarkably reduced
  cccDNA copy number: remarkably reduced
